Test results from US20240254244A1 (QYUNS THERAPEUTICS, published 2024).

T1: Human interferon alpha receptor 1 (IFNAR1) (human, UniProt P17181 28-436)
T1 construct: Soluble antigen flowed over captured antibody in Biacore; also called human IFNAR1; Human Interferon alpha/beta Receptor 1
T1 sequence: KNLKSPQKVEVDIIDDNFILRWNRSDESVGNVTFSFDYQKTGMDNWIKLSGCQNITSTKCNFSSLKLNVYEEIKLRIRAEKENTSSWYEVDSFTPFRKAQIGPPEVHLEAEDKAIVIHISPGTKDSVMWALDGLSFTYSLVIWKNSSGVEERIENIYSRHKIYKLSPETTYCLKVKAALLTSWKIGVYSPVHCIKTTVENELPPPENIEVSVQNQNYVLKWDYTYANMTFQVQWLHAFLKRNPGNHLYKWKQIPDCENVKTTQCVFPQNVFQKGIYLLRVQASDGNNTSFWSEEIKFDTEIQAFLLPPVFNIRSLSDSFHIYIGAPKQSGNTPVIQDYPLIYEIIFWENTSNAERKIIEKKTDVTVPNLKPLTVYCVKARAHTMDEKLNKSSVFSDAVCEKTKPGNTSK

T2: Human IFNAR1 on cells (HEK Blue IFNα/β cells, Daudi cells, human whole blood) (human, UniProt P17181 28-557)
T2 sequence (looked up): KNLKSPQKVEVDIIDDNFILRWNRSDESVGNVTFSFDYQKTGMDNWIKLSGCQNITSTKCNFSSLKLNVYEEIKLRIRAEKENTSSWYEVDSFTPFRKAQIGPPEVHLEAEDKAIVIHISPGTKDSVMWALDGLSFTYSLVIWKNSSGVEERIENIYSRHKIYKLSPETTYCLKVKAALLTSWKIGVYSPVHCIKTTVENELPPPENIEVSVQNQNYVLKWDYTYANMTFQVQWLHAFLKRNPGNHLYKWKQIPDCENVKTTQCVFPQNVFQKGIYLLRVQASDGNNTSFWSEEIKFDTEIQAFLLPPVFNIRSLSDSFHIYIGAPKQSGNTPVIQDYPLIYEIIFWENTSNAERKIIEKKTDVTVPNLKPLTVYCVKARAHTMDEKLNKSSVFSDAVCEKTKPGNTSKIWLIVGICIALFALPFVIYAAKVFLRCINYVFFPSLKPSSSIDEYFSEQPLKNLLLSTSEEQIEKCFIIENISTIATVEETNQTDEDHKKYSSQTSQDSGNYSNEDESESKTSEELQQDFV


Key:
[1] = biological target: T1, Human interferon alpha receptor 1 …; assay: SPR, Biacore T200, antibody captured on Protein A chip, antigen as analyte, 25 C, 1:1 model, mean of three
Protocol: BiacoreT200 was used to detect the affinity between QX006N (HZD1203-45-IgG4.1) and human IFNAR1. All processes were performed at 25° C. A commercial Protein A chip was used to immobilize an appropriate amount of antibody through the capture method so that Rmax was around 50 RU and the capture flow rate was 10 μl/min. The antigen was gradient diluted, the flow rate of the instrument was switched to 30 μl/min, flowed through the reference channel and the fixed antibody channel in order of concentration from low to high, and flowed through buffer as the negative control. The chip was regenerated with pH1.5 glycine after each binding and dissociation was completed. The built-in analysis software of the instrument was used to select the 1:1 binding model in the Kinetics option for fitting, and the antibody's binding rate constant kₐ, dissociation rate constant kd, and dissociation equilibrium constant KD values were calculated.
The data in the table were: each sample was tested three times and the average value was calculated.

[2] = biological target: T2, Human IFNAR1 on cells (HEK Blue IFNα/β …); assay: cell-based or functional assay

Row | Binder | Kd [1] [pM] | koff [1] [s⁻¹] | kon [1] [M⁻¹ s⁻¹] | EC50 of neutralising the effect of interferon (0.8 ng/ml IFNα.2b) on Daudi cell proliferation (CellTiter-Glo) [2] [µg/mL] | IC50 of inhibiting interferon (0.2 ng/ml IFNα.2b) induced STAT1/2 phosphorylation in HEK Blue IFNα/β reporter cells [2] [µg/mL] | IC50 of inhibiting interferon (8 ng/ml IFNα.2b with 40 ng/ml TNF-α) induced release of CXCL10/IP10 from human whole blood [2] [µg/mL]
1 | QX006N (HZD1203-45-IgG4.1) (antibody, V domains shown, Humanized rabbit antibody (clone 1203#) with human IgG4 constant region, expressed in ExpiCHO-S cells; also called anti-human interferon alpha receptor 1 (IFNAR1) monoclonal antibody of the present application) VH: EVQLVESGGGLVQPGGSLRLSCAASGFSLSSYYMTWVRQAPGKGLEWVSVINVYGGTYYASWAKGRFTISRDNSKNTLYLQMNSLRAEDTAVYYCAREDVAVYMAIDLWGQGTLVTVSS VL: AIQMTQSPSSLSASVGDRVTITCQASQSISNQLSWYQQKPGKAPKLLIYDASSLASGVPSRFSGSRSGTKFTLTISSLQPEDFATYYCLGIYGDGADDGIAFGGGTKVEIKR | 108 | 3.76e-05 | 347000 | 0.0299 | 0.00523 | 0.698
2 | Anifrolumab (antibody, V domains shown) VH: EVQLVQSGAEVKKPGESLKISCKGSGYIFTNYWIAWVRQMPGKGLESMGIIYPGDSDIRYSPSFQGQVTISADKSITTAYLQWSSLKASDTAMYYCARHDIEGFDYWGRGTLVTVSS VL: EIVLTQSPGTLSLSPGERATLSCRASQSVSSSFFAWYQQKPGQAPRLLIYGASSRATGIPDRLSGSGSGTDFTLTITRLEPEDFAVYYCQQYDSSAITFGQGTRLEIKR |  |  |  | 0.0317 | 0.00443 | 0.562
